# Test results published in IntAct's records for PubMed 35512704.
# B1: Mothers against decapentaplegic homolog 4 (Homo sapiens), Q13485 (parent)
# chain: MDNMSITNTPTSNDACLSIVHSLMCHRQGGESETFAKRAIESLVKKLKEKKDELDSLITAITTNGAHPSKCVTIQRTLDGRLQVAGRKGFPHVIYARLWRWPDLHKNELKHVKYCQYAFDLKCDSVCVNPYHYERVVSPGIDLSGLTLQSNAPSSMMVKDEYVHDFEGQPSLSTEGHSIQTIQHPPSNRASTETYSTPALLAPSESNATSTANFPNIPVASTSQPASILGGSHSEGLLQIASGPQPGQQQNGFTGQPATYHHNSTTTWTGSRTAPYTPNLPHHQNGHLQHHPPMPPHPGHYWPVHNELAFQPPISNHPAPEYWCSIAYFEMDVQVGETFKVPSSCPIVTVDGYVDPSGGDRFCLGQLSNVHRTEAIERARLHIGKGVQLECKGEGDVWVRCLSDHAVFVQSYYLDREAGRAPGDAVHKIYPSAYIKVFDLRQCHRQMQQQAATAQAAAAAQAAAVAGNIPGPGSVGGIAPAISLSAAAGIGVDDLRRLCILRMSFVKGWGPDYPRQSIKETPCWIEIHLHRALQLLDEVLHTMPIADPQPLD
# partner: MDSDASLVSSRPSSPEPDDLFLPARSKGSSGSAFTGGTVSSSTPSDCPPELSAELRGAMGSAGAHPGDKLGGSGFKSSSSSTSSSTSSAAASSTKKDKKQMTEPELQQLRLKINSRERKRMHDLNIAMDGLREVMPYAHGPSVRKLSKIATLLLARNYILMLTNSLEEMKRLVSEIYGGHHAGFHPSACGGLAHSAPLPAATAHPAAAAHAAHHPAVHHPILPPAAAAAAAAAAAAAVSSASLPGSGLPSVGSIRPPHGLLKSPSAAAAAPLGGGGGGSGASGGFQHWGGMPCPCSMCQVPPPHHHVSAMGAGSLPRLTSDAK
# B2: Mothers against decapentaplegic homolog 4 (Homo sapiens), Q13485 (parent)
# chain: B1 chain
# partner: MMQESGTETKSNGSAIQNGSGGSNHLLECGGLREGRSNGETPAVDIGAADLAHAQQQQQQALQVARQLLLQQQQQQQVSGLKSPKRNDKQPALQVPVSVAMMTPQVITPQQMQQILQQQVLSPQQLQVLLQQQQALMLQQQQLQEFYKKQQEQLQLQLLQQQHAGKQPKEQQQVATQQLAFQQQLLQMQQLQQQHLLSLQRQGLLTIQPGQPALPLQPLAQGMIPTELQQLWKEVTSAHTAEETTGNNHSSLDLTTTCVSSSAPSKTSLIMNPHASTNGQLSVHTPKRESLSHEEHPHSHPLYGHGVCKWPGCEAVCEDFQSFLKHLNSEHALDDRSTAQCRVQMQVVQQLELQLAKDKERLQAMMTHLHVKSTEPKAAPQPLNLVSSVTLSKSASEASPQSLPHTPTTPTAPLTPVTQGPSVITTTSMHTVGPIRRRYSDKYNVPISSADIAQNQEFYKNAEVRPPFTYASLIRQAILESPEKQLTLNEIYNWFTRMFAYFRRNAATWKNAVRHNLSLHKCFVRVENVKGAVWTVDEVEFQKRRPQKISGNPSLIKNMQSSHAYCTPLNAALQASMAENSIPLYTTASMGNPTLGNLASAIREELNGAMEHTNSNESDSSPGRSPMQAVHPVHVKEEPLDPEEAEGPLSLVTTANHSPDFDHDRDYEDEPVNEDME
# B3: Mothers against decapentaplegic homolog 4 (Homo sapiens), Q13485 (parent)
# chain: B1 chain
# partner: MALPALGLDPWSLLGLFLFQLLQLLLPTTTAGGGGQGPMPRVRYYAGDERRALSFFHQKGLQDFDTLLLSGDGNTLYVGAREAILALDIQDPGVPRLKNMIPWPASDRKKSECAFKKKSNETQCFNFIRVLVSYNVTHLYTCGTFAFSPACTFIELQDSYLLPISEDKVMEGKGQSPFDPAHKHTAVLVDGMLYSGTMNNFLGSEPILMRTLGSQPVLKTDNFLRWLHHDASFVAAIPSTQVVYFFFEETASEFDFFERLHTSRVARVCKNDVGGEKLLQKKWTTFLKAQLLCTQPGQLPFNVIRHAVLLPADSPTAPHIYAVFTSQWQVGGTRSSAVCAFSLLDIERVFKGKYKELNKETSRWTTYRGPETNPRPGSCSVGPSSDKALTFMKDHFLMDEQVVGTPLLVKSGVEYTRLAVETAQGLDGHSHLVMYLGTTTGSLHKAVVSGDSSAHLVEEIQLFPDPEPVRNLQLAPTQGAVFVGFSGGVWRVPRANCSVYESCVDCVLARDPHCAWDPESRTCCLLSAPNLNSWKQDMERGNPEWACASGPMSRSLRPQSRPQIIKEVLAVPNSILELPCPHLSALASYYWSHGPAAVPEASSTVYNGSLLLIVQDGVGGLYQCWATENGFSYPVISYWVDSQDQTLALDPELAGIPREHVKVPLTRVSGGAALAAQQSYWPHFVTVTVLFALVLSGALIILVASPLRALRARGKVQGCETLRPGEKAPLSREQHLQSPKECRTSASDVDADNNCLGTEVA
# B4: Mothers against decapentaplegic homolog 4 (Homo sapiens), Q13485 (parent)
# chain: B1 chain
# partner: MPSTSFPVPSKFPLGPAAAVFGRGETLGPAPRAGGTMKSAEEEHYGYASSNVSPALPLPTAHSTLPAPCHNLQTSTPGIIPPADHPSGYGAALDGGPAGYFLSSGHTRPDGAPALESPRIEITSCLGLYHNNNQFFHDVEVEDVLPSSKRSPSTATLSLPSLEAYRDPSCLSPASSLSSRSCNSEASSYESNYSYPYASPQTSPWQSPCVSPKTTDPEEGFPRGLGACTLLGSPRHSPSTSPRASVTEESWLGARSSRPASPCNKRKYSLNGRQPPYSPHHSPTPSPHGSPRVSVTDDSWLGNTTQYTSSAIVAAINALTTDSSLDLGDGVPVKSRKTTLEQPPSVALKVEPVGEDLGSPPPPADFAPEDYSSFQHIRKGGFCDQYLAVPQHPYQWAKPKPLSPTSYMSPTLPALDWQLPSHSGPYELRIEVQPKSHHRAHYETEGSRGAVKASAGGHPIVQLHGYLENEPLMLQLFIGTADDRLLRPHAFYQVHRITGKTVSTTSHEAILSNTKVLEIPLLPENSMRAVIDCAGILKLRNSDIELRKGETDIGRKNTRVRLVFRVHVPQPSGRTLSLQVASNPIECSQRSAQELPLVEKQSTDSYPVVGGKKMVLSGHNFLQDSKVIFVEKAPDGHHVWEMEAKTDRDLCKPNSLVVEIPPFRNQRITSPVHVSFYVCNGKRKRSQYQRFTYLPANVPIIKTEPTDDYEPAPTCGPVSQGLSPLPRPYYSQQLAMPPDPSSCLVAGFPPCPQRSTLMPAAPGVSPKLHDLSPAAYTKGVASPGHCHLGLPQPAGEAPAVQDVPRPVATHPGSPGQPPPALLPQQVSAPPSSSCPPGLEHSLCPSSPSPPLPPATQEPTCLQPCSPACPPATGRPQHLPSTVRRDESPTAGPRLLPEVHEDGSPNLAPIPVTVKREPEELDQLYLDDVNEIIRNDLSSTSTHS
# Variants of: B1
# Conditions: with olig2_human OLIG2, Q13516
row,effect of a mutation on the interaction,Variant
1,with no effect,D351H

# Variants of: B1
# Conditions: with olig2_human OLIG2, Q13516
# Remark: another data set of the same source
row,effect of a mutation on the interaction,Variant
1,with no effect,R361C

# Variants of: B1
# Conditions: with olig2_human OLIG2, Q13516
# Remark: another data set of the same source
row,effect of a mutation on the interaction,Variant
1,with no effect,R361H

# Variants of: B2
# Conditions: with foxp1_human FOXP1, Q9H334
row,effect of a mutation on the interaction,Variant
1,with no effect,G386D

# Variants of: B3
# Conditions: with sem4a_human SEMA4A
row,effect of a mutation on the interaction,Variant
1,with no effect,G386D

# Variants of: B3
# Conditions: with sem4a_human SEMA4A
# Remark: another data set of the same source
row,effect of a mutation on the interaction,Variant
1,with no effect,R361H

# Variants of: B3
# Conditions: with sem4a_human SEMA4A
# Remark: another data set of the same source
row,effect of a mutation on the interaction,Variant
1,with no effect,R361C

# Variants of: B3
# Conditions: with sem4a_human SEMA4A
# Remark: another data set of the same source
row,effect of a mutation on the interaction,Variant
1,with no effect,D351H

# Variants of: B4
# Conditions: with nfac1_human NFATC1, O95644
row,effect of a mutation on the interaction,Variant
1,with no effect,R361C

# Variants of: B4
# Conditions: with nfac1_human NFATC1, O95644
# Remark: another data set of the same source
row,effect of a mutation on the interaction,Variant
1,with no effect,R361H

# Variants of: B4
# Conditions: with nfac1_human NFATC1, O95644
# Remark: another data set of the same source
row,effect of a mutation on the interaction,Variant
1,with no effect,G386D
